Usually Kd stands for the equilibrium constant for the complex coming apart. A low value points to a tighter complex. For orientation: EC50 (read off the curve) means the midpoint of the concentration-response curve. Low values mean higher potency in that assay, high ones lower potency in that assay.

The target of experiment [1] is Secreted Protein, Acidic, Rich in Cysteines (SPARC) (UniProt P09486). The experiment can be described thus: phage display panning on immobilised SPARC; times isolated among 134 sequenced clones.
For experiment [2], the target named is T1, Secreted Protein, Acidic, Rich in Cysteines (SPARC) (UniProt P09486 18-303).
T1 construct: also called osteonectin; SPARC protein
T1 sequence (looked up): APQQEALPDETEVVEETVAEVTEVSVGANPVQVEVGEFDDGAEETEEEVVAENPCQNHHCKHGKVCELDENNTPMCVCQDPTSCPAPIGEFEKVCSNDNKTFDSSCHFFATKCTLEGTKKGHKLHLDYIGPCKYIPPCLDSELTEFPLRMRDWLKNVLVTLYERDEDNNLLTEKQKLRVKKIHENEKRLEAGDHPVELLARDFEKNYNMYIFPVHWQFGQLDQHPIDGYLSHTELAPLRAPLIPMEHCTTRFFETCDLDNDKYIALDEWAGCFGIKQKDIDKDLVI
The experiment can be described thus: phage ELISA on SPARC-coated wells; OD column 1 of 3. From the text:
(§1) Accordingly, a commercial peptide phage display library (12-mer peptides in M13) was screened for peptides which bind to SPARC. The target, SPARC is an acidic glycoprotein with a PI of 4.6. By immobilization on 96-wells plates with pH 9.6 coating buffer, Ph.D.-12 peptide library was screened four rounds to select peptide binders using phage display technology. Specifically, bound phages were eluted with an acidic eluting solution in the 1st round of screening. Then the screening stringency was enhanced gradually by decreasing the target protein concentration and increasing the percentage of Tween-20 in washing buffer. At the same time, competitive elution with excess target was adopted to improve the screening specificity. Finally, after four rounds of screening, ssDNA of selected clones were subjected to DNA sequencing. At the same time, the binding of the positive phages to the target protein was validated using phage ELISA.

The target of experiment [3] is T1, Secreted Protein, Acidic, Rich in …. The experiment can be described thus: phage ELISA on SPARC-coated wells; OD column 2 of 3.
Description: as §1
On the technique in general: ELISA stands for enzyme-linked immunosorbent assay.

Experiment [4] has the same target. The experiment is described as follows: phage ELISA on SPARC-coated wells; OD column 3 of 3.
Description: as §1

Experiment [5] has the same target. The experiment can be described thus: phage display panning on immobilised SPARC; times isolated among 134 sequenced clones.
Description: as §1

Experiment [6] concerns the target T2, HTI SPARC (purified platelet SPARC obtained from HTI) (UniProt P09486 18-303).
T2 sequence (looked up): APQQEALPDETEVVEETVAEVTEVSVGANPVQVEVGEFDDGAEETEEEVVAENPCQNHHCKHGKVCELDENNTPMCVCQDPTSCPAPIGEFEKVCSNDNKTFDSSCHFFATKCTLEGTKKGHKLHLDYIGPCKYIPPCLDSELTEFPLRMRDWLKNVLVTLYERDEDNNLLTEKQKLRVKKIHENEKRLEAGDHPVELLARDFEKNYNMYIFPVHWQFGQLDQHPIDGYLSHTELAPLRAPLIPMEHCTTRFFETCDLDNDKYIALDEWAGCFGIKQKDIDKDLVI
The experiment is described as follows: Biacore, SPARC immobilised on the chip; S = soluble scFv. In general terms: In SPR one partner is held on a chip, and binding of the other changes the refractive index at the surface.

The target in experiment [7] is T3, Abx SPARC (SPARC from engineered HEK293 cells produced by Abraxis) (UniProt P09486 18-303, limits assumed).
T3 sequence (looked up): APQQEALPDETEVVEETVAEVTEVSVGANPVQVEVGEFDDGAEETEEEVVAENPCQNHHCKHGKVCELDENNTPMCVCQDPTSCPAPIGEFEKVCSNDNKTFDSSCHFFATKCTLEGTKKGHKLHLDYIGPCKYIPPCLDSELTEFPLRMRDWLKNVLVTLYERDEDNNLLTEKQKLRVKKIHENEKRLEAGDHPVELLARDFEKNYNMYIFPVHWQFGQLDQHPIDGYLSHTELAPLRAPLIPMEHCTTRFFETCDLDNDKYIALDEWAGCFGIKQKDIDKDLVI
Described as above.

In experiment [8] the target is T1, Secreted Protein, Acidic, Rich in …. The experiment is described as follows: concentration-dependent binding ELISA.
For experiment [9] the target is unchanged. The experiment can be described thus: concentration-dependent ELISA on SPARC.
Experiment [10] has as its target T2, HTI SPARC (purified platelet SPARC …). The experiment can be described thus: Biacore, SPARC immobilised on the chip; R = refolded scFv.
The target of experiment [11] is T3, Abx SPARC (SPARC from engineered HEK293 …). The description is as above.

Molecule HLPKSLS (peptide) displayed a Count in experiment [1] of 1.
On to VPATRVSPTPYA (also called clone 133), for which the values for the OD in [2], in experiment [3] and in [4] were 0.545, 0.554 and 0.5, respectively. The Count in experiment [5] amounted to 1.

B1: ScFv 2-1 (scFv)
scFv: EVQLLESGGGLVQPGGSLRLSCAASGFTFSSYAMSWVRQAPGKGLEWVSMITPLGSTTAYADSVKGRFTISRDNSKNTLYLQMNSLRAEDTAVYYCAKRAGVFDYWGQGTLVTVSSGGGGSGGGGSGGGGSTDIQMTQSPSSLSASVGDRVTITCRASQSISSYLNWYQQKPGKAPKLLIYRASTLQSGVPSRFSGSGSGTDFTLTISSLQPEDFATYYCQQNDSFPTTFGQGTKVEIKR
notes: It was purified from bacteria on a nickel column
For B1, the Kd was 330 nM in experiment [6] and 370 nM in experiment [7].
Regarding IPFATAAYNAPG (also called clone 191), the OD in [2] turned out to be 0.564; in experiment [3], 0.567; in experiment [4], 0.58. Further, the Count in [5] amounted to 1.
In turn, AHPWRYTEPWSW (also called clone 101; clone 154) gave a Count in experiment [5] of 6.
For QILGYPTNLGPF (also called clone 135), the OD in experiment [2] was 0.626; in experiment [3] it was 0.652; in experiment [4], 0.66. This molecule showed a Count in experiment [5] of 1.
Regarding AAAPLNLSMTFP (also called clone 182), the OD in experiment [2] came to 0.756; in experiment [3] it was 0.782; in [4], 0.643. For the same molecule, the Count in experiment [5] amounted to 1.
The corresponding values for TTHSELSGYVEL (also called clone 188) are 0.716, 0.682, 0.685 and 1.
As for KAYLDSIPITPR (also called clone 60), the results for the OD in experiment [2], in experiment [3] and in [4] were 0.619, 0.611 and 0.605, respectively. Further, the Count in experiment [5] came to 1.
On to IDKPLHVVLALG (also called clone 184), for which the OD in [2] came out at 0.634; in experiment [3] it was 0.635; in [4] it was 0.554. Also, the Count in [5] amounted to 2.

B2: PD 21 (peptide)
peptide: VTPLLKFRALSS
notes: 12-mer from the Ph.D.-12 phage library; The peptide was cloned into pFUSE-hIgG1-Fc2 and expressed as the PD 21-Fc fusion; also called peptide 21; PD 21-Fc
B2: the Kd in experiment [8] came out at 100 nM; in [9] it was 1 nM. The “EC50 (read off the curve)” value in [9] was roughly 3 µg/mL. For the same molecule, the OD in experiment [2] was 0.45; in experiment [3], 0.443; in experiment [4], 0.438. This molecule also registered a Count in experiment [5] of 2.
With VSHPPRFPGWPQ (also called clone 59), the OD in experiment [2] turned out to be 0.737; in experiment [3], 0.628; in experiment [4] it was 0.733. The molecule also returned a Count in experiment [5] of 1.
Take SAHTLAAWFAKP (also called clone 204): the values for the OD in experiment [2], in experiment [3] and in experiment [4] were 0.8, 0.748 and 0.779, respectively. Also, in experiment [5], the Count is 1.
With TQWHDDSTFYWL (also called clone 186), the OD in experiment [2] came out at 0.903; in experiment [3], 0.985; in experiment [4] it was 0.882. This molecule came in with a Count in experiment [5] of 2.
Regarding LSTHKLFHSHSQ (also called clone 180), the OD in experiment [2] was determined as 1.21; in experiment [3], 1.28; in experiment [4], 1.14. This molecule also gave a Count in experiment [5] of 1.
The corresponding values for VGNMPFVHPHQW (also called clone 192) are 0.567, 0.5, 0.539 and 1.

B3: ScFv 3-2 (scFv)
scFv: EIVMTQSPGTLSLSPGDRATLSCRASQSVSGYLAWYQQKPGQAPRLLIYDASNRATGIPARFSGSGSGTDFTLTISSLQAEDVAVYYCQQYYSTLPTFGQGTKLEIKRSGGSTITSYNVYYTKLSSSGTQVQLVQSGGGVVQPGRPLKLSCAASGFTFSSYAMHWVRQAPGKGLEWVAVISYDGSNKYYADSVKGRFTISRDNSKNTLYLQMNSLRAEDTAVYYCARDLSWNDAFDIWGQGTMVTVSSAS
For B3, the Kd was found to be 78000 nM in experiment [10] and 1300 nM in experiment [11].

B4: PD 15 (peptide)
peptide: YTRLHHWIPPQR
notes: 12-mer from the Ph.D.-12 phage library; The peptide was cloned into pFUSE-hIgG1-Fc2 and expressed as the PD 15-Fc fusion; also called peptide 15; PD 15-Fc
B4: the Kd in experiment [8] turned out to be 41 nM; in [9], 410 nM. Further, the “EC50 (read off the curve)” value in experiment [9] is roughly 2 µg/mL. In addition, the OD in [2] was 0.597; in experiment [3] it was 0.516; in [4], 0.576. In experiment [5], this molecule yielded a Count of 1.
For the molecule TSYLNSGMIPAR (also called clone 63), the OD stood at 0.688 in [2], 0.664 in experiment [3] and 0.602 in experiment [4]. For the same molecule, the Count in experiment [5] stood at 1.
As for HYFSRTQTLSTL (also called clone 194), the figures for the OD in experiment [2], in experiment [3] and in experiment [4] were 0.494, 0.514 and 0.521, respectively. In addition, the Count in experiment [5] is 1.
